33 molecules from patent publication US20240279318A1 (NANJING LEGEND BIOTECH, published 2024) can be followed below.

Substitutions are numbered along the chain they refer to.

A word on the Kd: it is the concentration at which binding is half-saturated. A lower Kd goes with a tighter complex. The koff is the rate constant with which the complex falls apart. Low values mean slow dissociation, high ones fast dissociation. In general, kon refers to the second-order rate constant of association. Low readings indicate slow association, high ones fast association.

The labels stand for the following.
B1: AS170036 VL1VH1 (scFv)
scFv: QSALTQPRSVSGSPGQSVTISCAGTSSDVGSENYVSWYQQHPGKAPKLMIYQVNKRASGVPDRFSGSKSGNTASLTISGLQAEDEADYYCASYRSSDHNIVFGGGTKLTVLGGGGSGGGGSGGGGSEVQLVESGGGLVQPGGSLRLSCAASGFTFSSYAMSWVRQAPGKGLEWVSTINSGTGSPYYADSVKGRFTISRDNSKNTLYLQMNSLRAEDTAVYYCAKNFFDGSWFLGPPAMDYWGQGTLVTVSSHHHHHH
notes: Crude scFv from E. coli TG1 supernatant; also called AS170036 VL1VH1 scFv
B2: AS170036 VL1VH1-VLH98T (scFv)
scFv: B1 scFv with H98T
B3: AS170036 VL1VH1-VHS57R (scFv)
scFv: B1 scFv with S183R
B4: AS170036 VL1VH1-VLH98I (scFv)
scFv: B1 scFv with H98I
B5: AS170036 VL1VH1-VLH98Q (scFv)
scFv: B1 scFv with H98Q
B6: AS170036 VL1VH1-VHS57Q (scFv)
scFv: B1 scFv with S183Q
B7: AS170036 VL1VH1-VLH98F (scFv)
scFv: B1 scFv with H98F
B8: AS170036 VL1VH1-VLH98P (scFv)
scFv: B1 scFv with H98P
B9: AS170036 VL1VH1-VLH98V (scFv)
scFv: B1 scFv with H98V
B10: AS170036 VL1VH1-VLH98A (scFv)
scFv: B1 scFv with H98A
B11: AS170036 VL1VH1-VLE32W (scFv)
scFv: B1 scFv with E32W
B12: AS167821 sdAb-mIgG2aFc (Fc fusion, not shown: a dimerising Fc or GST)
chain: QVRLVESGGGSVQAGGSLRLSCAASGRTYSTYCMGWFRQAPGKEREGVATIYIGSGRTYYVDSVKGRFTISQDNAKNTLYLQMNNLKPEDTAMYYCTADVDPYESSWSRGLGYWGQGTQVTVSS
notes: i647-labelled for flow cytometry
B13: AS170036 VL1VH1 (scFv)
scFv: B1 scFv
notes: Crude scFv from E. coli TG1 supernatant, captured on the chip; also called AS170036 VL1VH1 scFv
B14: 48-AS170036 VL1VH1-56Y98Q108S (scFv)
scFv: B1 scFv with H98Q, G182Y, G234S
notes: Crude scFv mutein of AS170036 VL1VH1
B15: 03-AS170036 VL1VH1-56Y98Q (scFv)
scFv: B1 scFv with H98Q, G182Y
notes: as for B14
B16: 05-AS170036 VL1VH1-56N98I (scFv)
scFv: B1 scFv with H98I, G182N
notes: as for B14
B17: 75-AS170036 VL1VH1-57K98Q108S (scFv)
scFv: B1 scFv with H98Q, S183K, G234S
notes: as for B14
B18: 16-AS170036 VL1VH1-56Y108A (scFv)
scFv: B1 scFv with G182Y, G234A
notes: as for B14
B19: 42-AS170036 VL1VH1-56Y98F108S (scFv)
scFv: B1 scFv with H98F, G182Y, G234S
notes: as for B14
B20: 22-AS170036 VL1VH1-57H108A (scFv)
scFv: B1 scFv with S183H, G234A
notes: as for B14
B21: 70-AS170036 VL1VH1-57K98I108A (scFv)
scFv: B1 scFv with H98I, S183K, G234A
notes: as for B14
B22: 49-AS170036 VL1VH1-56N98F108A (scFv)
scFv: B1 scFv with H98F, G182N, G234A
notes: as for B14
B23: 67-AS170036 VL1VH1-57K98F108A (scFv)
scFv: B1 scFv with H98F, S183K, G234A
notes: as for B14
B24: 40-AS170036 VL1VH1-56Y98F108A (scFv)
scFv: B1 scFv with H98F, G182Y, G234A
notes: as for B14
B25: 15-AS170036 VL1VH1-57M98Q (scFv)
scFv: B1 scFv with H98Q, S183M
notes: as for B14
B26: 27-AS170036 VL1VH1-57K108S (scFv)
scFv: B1 scFv with S183K, G234S
notes: as for B14
B27: 10-AS170036 VL1VH1-57K98F (scFv)
scFv: B1 scFv with H98F, S183K
notes: as for B14
B28: 25-AS170036 VL1VH1-57K108A (scFv)
scFv: B1 scFv with S183K, G234A
notes: as for B14
B29: 19-AS170036 VL1VH1-56N108A (scFv)
scFv: B1 scFv with G182N, G234A
notes: as for B14
B30: 34-AS170036 VL1VH1-98I108A (scFv)
scFv: B1 scFv with H98I, G234A
notes: as for B14
B31: 45-AS170036 VL1VH1-56Y98I108S (scFv)
scFv: B1 scFv with H98I, G182Y, G234S
notes: as for B14
B32: 82-AS170036 VL1VH1-57M98Q108A (scFv)
scFv: B1 scFv with H98Q, S183M, G234A
notes: as for B14
B33: 43-AS170036 VL1VH1-56Y98I108A (scFv)
scFv: B1 scFv with H98I, G182Y, G234A
notes: as for B14

One experiment concerns the target T1, AFP158/HLA-A*02:01 complex (human).
T1 construct: flowed as analyte in SPR
Description: SPR, fold vs AS170036 VL1VH1. In general terms: In SPR one partner is held on a chip, and binding of the other changes the refractive index at the surface.
Description: (§1) The experiment was carried out as follows. The crude scFv protein were captured onto the sensorchip. Different concentrations (320, 160, 40 nM) of AFP158/HLA-A*02:01 complex flowed over the sensorchip surface, and were allowed to bind the antibody fragment for 100 s followed by injection of the running buffer to allow dissociation of the complex. On-rate (kd) and off-rate (kd) were calculated based on association and dissociation curve, and were used to estimate the equilibrium dissociation constant (KD).
With B1, the Affinity increase was 1 fold.
The same measure, in the same setting: then B2, with 2.9 fold; and B3, with 2.8 fold; and B4, with 3.1 fold.
On the same count and under the same terms, then B5, with 3.3 fold; and B6, with 2.4 fold; and B7, with 3.3 fold.
The same measure, in the same setting: with B8 the figure was 3.5 fold.
Molecule B9 displayed an Affinity increase of 3.2 fold.
Consider B10, for which the Affinity increase turned out to be 2.3 fold.
The molecule B11 came in with an Affinity increase of 2.4 fold.

Another experiment has as its target T1, AFP158/HLA-A*02:01 complex. Description: SPR, fold vs AS170036 VL1VH1. The source holds these as a separate data set.
Description: as §1
(§2) The crude scFv muteins were then subjected to SPR affinity measurement by the method mentioned above.
In turn, B1 registered an Affinity increase of 1 fold.

Another experiment concerns the target T1, AFP158/HLA-A*02:01 complex. Description: SPR, fold vs AS170036 VL1VH1. This is another data set of the same source.
Description: as §1, §2
As to B1, the Affinity increase was 1 fold.

The next experiment deals with T1, AFP158/HLA-A*02:01 complex. Description: SPR, crude scFv captured, pMHC analyte.
Description: as §1
B1 registered a dissociation constant (Kd) of 270 nM, a koff of 0.1 s⁻¹ and a kon of 380000 M⁻¹ s⁻¹.
For B2, the dissociation constant (Kd) came out at 84 nM, the dissociation rate constant (koff) was 0.025 s⁻¹ and the kon turned out to be 290000 M⁻¹ s⁻¹.
As to B3, the Kd stood at 88 nM, the dissociation rate constant (koff) was determined as 0.017 s⁻¹ and the kon came out at 200000 M⁻¹ s⁻¹.
Taken in the same sequence, the figures for B4 were 78 nM, 0.018 s⁻¹ and 230000 M⁻¹ s⁻¹.
Take B5: the equilibrium dissociation constant (Kd) was 75 nM, the dissociation rate constant (koff) was 0.016 s⁻¹ and the kon came to 220000 M⁻¹ s⁻¹.
Taken in the same sequence, the figures for B6 were 100 nM, 0.022 s⁻¹ and 210000 M⁻¹ s⁻¹.
Taken in the same sequence, the figures for B7 were 74 nM, 0.033 s⁻¹ and 450000 M⁻¹ s⁻¹.
Taken in the same sequence, the figures for B8 were 70 nM, 0.017 s⁻¹ and 240000 M⁻¹ s⁻¹.
Turning to B9, the dissociation constant (Kd) was determined as 78 nM, the koff was 0.018 s⁻¹ and the kon amounted to 230000 M⁻¹ s⁻¹.
Taken in the same sequence, the figures for B10 were 110 nM, 0.027 s⁻¹ and 260000 M⁻¹ s⁻¹.
For B11, in that order: 100 nM, 0.016 s⁻¹ and 150000 M⁻¹ s⁻¹.

The next experiment deals with T1, AFP158/HLA-A*02:01 complex. Description: SPR, crude scFv captured, pMHC analyte. The source holds these as a separate data set.
Description: as §1, §2
The molecule B1 had a dissociation constant (Kd) of 230 nM, an off-rate constant (koff) of 0.11 s⁻¹ and an association rate constant (kon) of 490000 M⁻¹ s⁻¹.

Another experiment concerns the target T1, AFP158/HLA-A*02:01 complex. Description: SPR, crude scFv captured, pMHC analyte. This is another data set of the same source.
Description: as §1, §2
Turning to B1, the Kd was 230 nM, the koff is 0.11 s⁻¹ and the kon was 490000 M⁻¹ s⁻¹.

In a further experiment the target is T2, AFP158/HLA-A*02:01 complex (human).
T2 construct: biotinylated on the BSP by BirA for ELISA and panning; also called biotinylated AFP158/HLA-A*02:01 complex; Bio-AFP158
Description: SPR, antibody captured via mIgG2a-Fc, complex as analyte.
Description: The binding affinity between selected antibodies and AFP158/HLA-A*02:01 complex was determined by surface plasmon resonance (SPR) on a BIAcore T200 instrument (GE Healthcare). The experiment was carried out as follows. The purified sdAb/scFv-mIgG2aFc protein were captured through mIgG2a-Fc onto the sensorchip. […] On-rate (kₐ) and off-rate (kd) were calculated based on association and dissociation curve, and were used to estimate the equilibrium dissociation constant (KD).
Turning to B12, the Kd came out at 95 nM, the koff is 0.039 s⁻¹ and the kon was 410000 M⁻¹ s⁻¹.

The target in a further experiment is T3, AFP158/HLA-A*02:01 complex (human).
T3 construct: flowed over the chip as analyte; also called AFP158 peptide/HLA-A*02:01 complex
Description: SPR (BIAcore T200), crude scFv captured, complex flowed over.
Description: as §1
The 84 muteins were then tested for their selectivity. The 12 recombinant AFP158 homologous peptides/HLA-A*02:01 complex were mixed in three groups (group 1: ZNF566 and ARNTL, group 2: CDC14A, PTP4A1, BRCA2 and RCL1, group 3: OR1I1, OR51B6, OR6C1, ATG9A, RP1 and NR2E1). The binding of the 84 antibodies to these complexes were then measured by method described above.
As for B13, the SPR binding level is 196 RU.
Still for that read-out and setting: with B14 the figure was 817 RU; with B15, 738 RU.
In turn, B16 showed an SPR binding level of 564 RU.
Turning to B17, the SPR binding level was 819 RU.
The same measure, in the same setting: with B18 the figure was 601 RU; with B19, 682 RU.
Still for that read-out and setting: then B20, with 571 RU.
The same measure, in the same setting: then B21, with 807 RU.
For B22, the SPR binding level was 604 RU.
Consider B23, for which the SPR binding level is 686 RU.
On the same count and under the same terms, with B24 the figure was 587 RU; with B25, 554 RU.
Still for that read-out and setting: with B26 the figure was 627 RU; with B27, 614 RU.
Same read-out and setting: with B28 the figure was 554 RU; with B29, 526 RU; with B30, 559 RU.
Consider B31, for which the SPR binding level came to 689 RU.
On the same count and under the same terms, with B32 the figure was 662 RU.
Same read-out and setting: with B33 the figure was 664 RU.
